Results from patent US11365219B2, “Cyclic peptides as protein targeting agents” (California Institute of Technology, priority 2013, dated 2022).
Blank lines part the entries; values can stand above or below the compound they belong to. Numbered stars: 1 amine (or outer) side, 2 acyl side, 3 side chain; on linkers, the order of the positions; unused ones are H or OH. Bridge positions count the residues as written; N and C are the ends. Square brackets hold non-standard residues; d marks the D form. Ends that are not written are not given here. Peptide text beside a SMILES is read from it. * marks the point of attachment. Biotin = O=C1N[C@H]2[C@H](CS[C@H]2CCCCC(=O)*)N1; X1 = O=C(CCCOCCOCCOCCOCCOCCN[*:1])[*:2]; Ethylenediamine = C(CN[*:2])N[*:1]; R8 = C=CCCCCCC[C@@](C)(N)C(=O)O; S5 = C=CCCC[C@](C)(N)C(=O)O; Pra = C#CC[C@H](N)C(=O)O

What was measured:
[1] = molecular target: PfHRP2 protein (Plasmodium falciparum, UniProt P05227); test: biochemical
Procedure: For the selectivity assay, the effect of binding of the ligand to the PfHRP2 protein with varying serum concentrations was determined.

[2] = molecular target: Akt2 (Homo sapiens, UniProt P31751); test: single point immunoassay, cyclic versus linear peptide (FIG. 6C); assay type: binding
Description: The peptide libraries of Example 2 were screened against the C-terminal epitope of Akt2 that contains residues 450-481 as illustrated in FIG. 5. Those residues include the phosphorylation site […] which, for the screen exemplified in this example, was phosphorylated. The peptide libraries were first screened against synthetic peptide that represented a scrambled epitope of Akt2 450-481 to eliminate those library elements that bind to closely related epitopes. The remaining library elements were screened against a synthetically prepared polypeptide fragment representing the phosphorylated Akt2 C-terminus. The libraries A, B, C (from example 2) were all screened. Library C yielded hits, and the sequence of those hits (determined by Edman degradation) is shown in Table 3 (Tz4 indicates 4-carbon linker to triazole).
(§1) The structure of an isolated hit, with sequence of variable region YYTYT (SEQ ID NO:4) is illustrated in FIG. 6A. […] FIG. 6D is an affinity estimation from immunoassays in which the Cy(YYTYT (SEQ ID NO:4)-Tz4) peptide is compared against the corresponding linear peptide for capturing full-length Akt2 protein. […] Finally, FIG. 6E presents selectivity assay data showing the relative binding of the cyclic peptide to the Akt2 protein, relative to the closely related Akt1 and Akt3 proteins. The sequence of the C-terminal regions for all three proteins is given.

[3] = molecular target: T1, full-length Akt2 protein (Homo sapiens, UniProt P31751); test: affinity estimation from immunoassays capturing full-length Akt2 protein (FIG. 6D); assay type: binding; conditions: cyclic vs linear peptide
T1 construct: compared against the corresponding linear peptide for capturing full-length Akt2 protein
Description: as §1

[4] = tested on: PvLDH; test: ELISA, biotinylated ligand on streptavidin plate, GST-PvLDH, antiGST-HRP detection; assay type: binding; conditions: whole protein; 5 μM biotinylated ligand immobilized; FIG. 10
Procedure: (§2) Hit sequence No. 6 (HWSAN (SEQ ID NO:11)) was identified for further testing against the whole PfLDH or PvLDH proteins, results of which are presented in FIG. 10. […] A RCM cyclized version of the HWSAN (SEQ ID NO:11) peptide was synthesized. 5 μM of the biotinylated ligands were immobilized on a streptavidin plate, blocked with 5% milk and then treated with GST-PfLDH or GST-PvLDH proteins overnight. The binding was detected using antiGST-HRP antibody.

[5] = molecular target: T2, PfLDH (Plasmodium falciparum, UniProt Q27743, A73S/D96L); test: ELISA, biotinylated ligand on streptavidin plate, GST-PfLDH, antiGST-HRP detection; assay type: binding; conditions: 5 μM biotinylated ligand immobilized
Procedure: as §2
To look at the selectivity of the ligand, a single point ELISA was done with the biotinylated ligand immobilized on the streptavidin plate and treating with 10 nM PfLDH or PvLDH protein in varying concentrations of human serum.

[6] = tested on: PvLDH; test: sandwich ELISA, NeutrAvidin-coated plates loaded with biotinylated ligand, pvLDH; assay type: binding; conditions: varying concentrations of pLDH in TBS
Procedure: (§3) The structure of the resulting binary ligand hevwh-YLGHK based on the hit sequence No. 1 and representative data is presented in FIG. 11. […] Similar ELISA was performed with pLDHs and human LDH (hLDH) in the presence of 1 and 5% (v/v) human serum to confirm the selectivity and high activity of the binary ligand in complex mixtures.

[7] = molecular target: T2, PfLDH; test: sandwich ELISA, NeutrAvidin-coated plates loaded with biotinylated ligand, pfLDH; assay type: binding; conditions: varying concentrations of pLDH in TBS
Procedure: as §3

T1 sequence (P31751 whole entry): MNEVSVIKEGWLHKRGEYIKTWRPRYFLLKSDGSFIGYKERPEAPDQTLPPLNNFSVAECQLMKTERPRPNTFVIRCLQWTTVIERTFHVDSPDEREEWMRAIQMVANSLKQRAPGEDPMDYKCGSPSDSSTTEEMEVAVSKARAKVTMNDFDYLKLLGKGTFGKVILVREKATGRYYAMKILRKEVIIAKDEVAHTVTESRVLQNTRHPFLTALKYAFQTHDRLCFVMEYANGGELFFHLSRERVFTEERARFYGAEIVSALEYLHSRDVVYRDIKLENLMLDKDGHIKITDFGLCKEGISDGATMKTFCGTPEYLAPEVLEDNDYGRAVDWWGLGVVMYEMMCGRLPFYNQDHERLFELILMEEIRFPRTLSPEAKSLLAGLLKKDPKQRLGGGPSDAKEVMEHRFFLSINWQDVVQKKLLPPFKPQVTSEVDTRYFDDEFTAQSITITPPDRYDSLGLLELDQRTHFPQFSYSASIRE
Sequence of Akt2 (P31751 whole entry, the tested form may be a part): as the sequence (P31751 whole entry) above

Compound: CC(C)C[C@@H]1NC(=O)[C@H](Cc2c[nH]c3ccccc23)NC(=O)[C@H](CCC(=O)O)NC(=O)[C@H]([C@@H](C)O)NC(=O)[C@H](CO)NC(=O)CNC(=O)[C@](C)(N)CCCCCC/C=C\CCC[C@@](C)(C(=O)NCCOCCOCCOCCOCCOCCCC(=O)NCCNC(=O)CCCC[C@@H]2SC[C@@H]3NC(=O)N[C@@H]32)NC1=O [biotinylated peptide] (H-[R8]GSTEWL[S5][X1]-{Ethylenediamine-Biotin}; staple (Z) 1-8)
- EC50 [1]: 20 nM

- binding relative to the linear variant [2]: improved binding
- affinity relative to the corresponding linear peptide [3]: 30 fold
Compound: Cy(YYTYT (SEQ ID NO:4)-Tz4) (triazole (positions not given here); also: Tz4: 4-carbon linker to triazole)

Compound: HWSAN ([Pra]HWSAN; triazole (positions not given here); also: triazole cyclisation, partner residue not given here) [HWSAN (SEQ ID NO:11)]
- affinity for pvLDH [4]: high affinity
- selectivity between the PfLDH and PvLDH, triazole-cyclized versus RCM cyclic peptide ([5]; GST-PfLDH or GST-PvLDH overnight): higher selectivity
- affinity for pfLDH ([5]; whole protein, FIG. 10): high affinity

Compound: RCM cyclic peptide: RCM cyclized version of the HWSAN peptide, biotinylated ligand (staple (positions not given here); also: RCM cyclized, olefinic residues not placed, biotinylated, site not given here)
- affinity for PfLDH, RCM cyclic versus triazole-cyclized peptide ([5]; GST-PfLDH overnight): higher affinity

Compound: hevwh-YLGHK
- affinity for pvLDH [6]: high affinity
- affinity for pfLDH [7]: high affinity
